Results published in paper PMC3142182.

Biological target: HCV NS5A protein, genotype 1b (hepatitis C virus genotype 1b) (UniProt Q9WMX2)
Experiment: co-IP; detergent-solubilized lysates of HEK 293T cells expressing the proteins; immunoprecipitation with mAb against 1b5A, Western blot for NS5B; protocol of Qi et al. [29]; three independent experiments

## HCV NS5B (RNA-dependent RNA polymerase), genotype 1b (Con1), full length (from UniProt Q9WMX2 2420-3010) (enzyme)
  fold more co-precipitated than 1bΔ21: > 2 fold
